Measured values: US20210324417A1 (RESEARCH INSTITUTE AT NATIONWIDE CHILDREN S HOSPITAL, published 2021)

Target: neuropilin-1 (NRP1) (mouse (endogenous protein of the mouse …, UniProt P97333 22-923))
Test: co-immunoprecipitation with anti-NRP1 antibody from NSC-34 lysates, anti-V5 Western blot
Protocol: Cells were grown to 70% confluency before transfection. A human wild-type, P234KY, or ΔETAQ GARS cDNA was cloned into the pcDNA6 plasmid to express GARS in-frame with a V5 tag. Transfections were performed using Lipofectamine 2000 (Invitrogen) according to the manufacturer's instruction. For cell lysate preparations, NSC-34 cells (36 hours after transfection) were washed twice in phosphate-buffered saline (PBS), scraped into PBS, pelleted, and resuspended in Pierce IP Lysis Buffer (Thermo Scientific) for 30 min and centrifuged for 7 min at 12,000×g; the insoluble fraction was discarded. Protein G beads (Invitrogen) were pre-incubated with anti-NRP1 antibody (Abcam) or rabbit IgG (Cell signaling) for 30 min before mixed with the cell lysates for overnight. […] Wild-type and mutant GARS proteins were detected using mouse monoclonal V5 antibody purchased from Invitrogen. NRP1 was detected by utilizing the same antibody for co-immunoprecipitation. […]
After immunoprecipitation with an anti-NRP1 antibody, proteins were subjected to Western blot analysis using an anti-V5 antibody. […] Nevertheless, no interaction between ΔETAQ GARS and NRP1 was detected in unbiased mass spectrometry analyses of proteins immuno-precipitated from mouse neuroblastoma (MN1) cells expressing FLAG-tagged wild-type or V5-tagged ΔETAQ GARS.

B1: V5-tagged wild-type human GARS (glycyl-tRNA synthetase) (enzyme, UniProt P41250-2 1-685, looked up)
chain: MDGAGAEEVLAPLRLAVRQQGDLVRKLKEDKAPQVDVDKAVAELKARKRVLEAKELALQPKDDIVDRAKMEDTLKRRFFYDQAFAIYGGVSGLYDFGPVGCALKNNIIQTWRQHFIQEEQILEIDCTMLTPEPVLKTSGHVDKFADFMVKDVKNGECFRADHLLKAHLQKLMSDKKCSVEKKSEMESVLAQLDNYGQQELADLFVNYNVKSPITGNDLSPPVSFNLMFKTFIGPGGNMPGYLRPETAQGIFLNFKRLLEFNQGKLPFAAAQIGNSFRNEISPRSGLIRVREFTMAEIEHFVDPSEKDHPKFQNVADLHLYLYSAKAQVSGQSARKMRLGDAVEQGVINNTVLGYFIGRIYLYLTKVGISPDKLRFRQHMENEMAHYACDCWDAESKTSYGWIEIVGCADRSCYDLSCHARATKVPLVAEKPLKEPKTVNVVQFEPSKGAIGKAYKKDAKLVMEYLAICDECYITEMEMLLNEKGEFTIETEGKTFQLTKDMINVKRFQKTLYVEEVVPNVIEPSFGLGRIMYTVFEHTFHVREGDEQRTFFSFPAVVAPFKCSVLPLSQNQEFMPFVKELSEALTRHGVSHKVDDSSGSIGRRYARTDEIGVAFGVTIDFDTVNKTPHTATLRDRDSMRQIRAEISELPSIVQDLANGNITWADVEARYPLFEGQETGKKETIEE
notes: Expressed by transfection in mouse NSC-34 cells and tested from the cell lysate; also called wild-type GARS; WT GARS; not shown: V5 tag expressed in-frame from pcDNA6
Question: Does B1 bind?
Answer: Result: no binding
